Measured values as given in PMC11079059, “Development of a new affinity maturation protocol for the construction of an internalizing anti-nucleolin antibody library” (Scientific Reports, 2024).

B1: VHH clone D10 (VHH)
VHH: QVQLQESGGGLVQPGGSLRLSCAASGRASASSARSARAIGWFRQAPGKEREFVARIYWSSGNTYYADSVKGRFAISRDIAKNTVDLTMNNLEPEDTAVYYCAAPQRRSARLSAWGQGTQVTVSS
notes: source: ER2738 E. coli, IPTG induction, purified (Dynabeads His-Tag Isolation & Pulldown)
B2: VHH clone D11 (VHH)
VHH: B1 VHH
notes: as for B1

Target: T1, nucleolin (Homo sapiens, UniProt P19338)
T1 construct: The cells were not transfected; also called cell surface nucleolin; source: endogenous, on nucleolin-overexpressing MDA-MB-435S cells
T1 sequence (P19338 whole entry): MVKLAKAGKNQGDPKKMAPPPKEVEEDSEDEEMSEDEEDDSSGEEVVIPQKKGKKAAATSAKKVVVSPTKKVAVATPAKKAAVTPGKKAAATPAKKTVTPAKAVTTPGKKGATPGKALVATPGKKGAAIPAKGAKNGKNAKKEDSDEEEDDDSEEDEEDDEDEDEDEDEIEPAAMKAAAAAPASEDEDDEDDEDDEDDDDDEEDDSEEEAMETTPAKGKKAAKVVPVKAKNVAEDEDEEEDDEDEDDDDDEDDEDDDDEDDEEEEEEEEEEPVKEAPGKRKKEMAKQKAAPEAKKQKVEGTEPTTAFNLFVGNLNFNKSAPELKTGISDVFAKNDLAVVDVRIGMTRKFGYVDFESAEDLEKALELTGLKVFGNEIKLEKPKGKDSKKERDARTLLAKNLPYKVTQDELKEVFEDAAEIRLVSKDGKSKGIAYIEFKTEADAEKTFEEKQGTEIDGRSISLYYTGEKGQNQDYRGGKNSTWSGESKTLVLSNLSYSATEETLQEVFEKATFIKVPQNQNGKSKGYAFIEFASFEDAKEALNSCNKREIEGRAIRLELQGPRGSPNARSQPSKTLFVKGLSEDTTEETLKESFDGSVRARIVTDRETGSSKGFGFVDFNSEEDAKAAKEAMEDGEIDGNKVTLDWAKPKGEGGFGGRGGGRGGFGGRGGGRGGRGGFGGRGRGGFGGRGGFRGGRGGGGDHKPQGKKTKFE
Test: flow cytometry on cells; 1.5 x 10^5 MDA-MB-435S cells with 1 µg of each purified VHH, 45 min at 4 °C, PBS with 1% BSA; detected with anti-HA-Alexa Fluor 647; MFI normalised to cells with secondary antibody only; a representative experiment
Conditions: one partner purified

Row | Binder | fold increase in binding (normalised MFI) relative to the reference VHH
1 | B1 | 1.4 fold
2 | B2 | 2 fold
